From patent publication US9005963B2, “Amino acid sequences directed against cellular receptors for viruses and bacteria” (Ablynx N.V., priority 2008, dated 2015) come the findings set out here.

Marks after values point to notes of the source that are not given here.

Assay [1] has as its target T1, CXCR4 (Homo sapiens, UniProt P61073). The experiment in a line: Binding of 125I-labeled Nanobodies to membranes from HEK293T cells expressing CXCR4 compared to CXCR3. Details: expressed in transfected cells; host or cells: HEK293T, transient (pcDNA3.1-CXCR4). On the procedure:
(§1) Membranes from HEK293T cells transiently expressing CXCR3 or CXCR4 were prepared 48 h after transfection as follows. Cells were washed and scraped from the cell culture dishes with ice-cold PBS containing 1 mm EDTA. The scraped cells were pelleted at 1500×g for 10 min at 4° C. The pellet was washed and then resuspended in ice-cold membrane buffer (15 mM Tris, pH 7.5, 1 mM EGTA, 0.3 mM EDTA, and 2 mM MgCl2). The cell suspension was homogenized by 10 strokes at 1200 rpm using a Teflon-glass homogenizer and rotor and further subjected to three freeze-thaw cycles using liquid nitrogen. Membranes were separated by centrifugation at 40,000 g for 25 min at 4° C. The membrane pellet was washed and resuspended in ice-cold Tris-sucrose buffer (20 mM Tris, pH 7.4, and 250 mM sucrose) and frozen in liquid nitrogen. The total protein was determined using a Bradford assay (Bio-Rad).
Periplasmas (1:10) or ligands were pre-incubated with membranes in binding buffer (50 mM HEPES (pH 7.4), 1 mM CaCl2, 5 mM MgCl2, 100 mM NaCl, 0.5% bovine serum albumin) supplemented with 0.5% BSA for 1 h at 22° C. before the addition of [^125I]-CXCL12 (40 pM) or [^125I]-238D2 (3 nM) or [^125I]-238D4 (3 nM) for additional 2 h at 22° C. […] Plates were counted by liquid scintillation.

The target of assay [2] is T1, CXCR4. The experiment in a line: Competition binding with [125I]-238D4 on membranes from HEK293T cells transiently expressing CXCR4. Details: expressed in transfected cells; host or cells: HEK293T, transient (pcDNA3.1-CXCR4). On the procedure:
as §1
(§2) Membranes were then harvested over polyethylenimine (0.5%)-treated Whatman GF/C filter plates and washed three times with ice cold binding buffer containing 500 mM NaCl. Plates were counted by liquid scintillation.

Assay [3] has as its target T1, CXCR4. Nature of the assay: Competition binding with [125I]-238D2 on membranes from HEK293T cells transiently expressing CXCR4. Details: expressed in transfected cells; host or cells: HEK293T, transient (pcDNA3.1-CXCR4). On the procedure:
as §1, §2

Assay [4] has as its target T1, CXCR4. Nature of the assay: Competition binding with [125I]-CXCL12 on membranes from HEK293T cells transiently expressing CXCR4. Details: expressed in transfected cells; host or cells: HEK293T, transient (pcDNA3.1-CXCR4); displacement of specifically bound [125I]-CXCL12 (in words): dose or concentration left out as unconfirmed. Conditions: for pKi ([125I]-CXCL12): HEK293T-CXCR4 membranes; for Displacem. (%) of [125I]-CXCL12: maximal displacement, a: no significant displacement at 0.5 μM, b/c(B-6): maximum not reached, displacement at 0.5 μM. The procedure:
as §1
Membranes were then harvested over polyethylenimine (0.5%)-treated Whatman GF/C filter plates and washed three times with ice cold binding buffer containing 500 mM NaCl. Plates were counted by liquid scintillation. […]

[5] abbreviates: 238C5 only at high concentrations (≧100 nM).
[6] abbreviates: maximal displacement, a: no significant displacement at 0.5 μM, b: displacement at 0.5 μM.

T1 sequence (P61073 whole entry): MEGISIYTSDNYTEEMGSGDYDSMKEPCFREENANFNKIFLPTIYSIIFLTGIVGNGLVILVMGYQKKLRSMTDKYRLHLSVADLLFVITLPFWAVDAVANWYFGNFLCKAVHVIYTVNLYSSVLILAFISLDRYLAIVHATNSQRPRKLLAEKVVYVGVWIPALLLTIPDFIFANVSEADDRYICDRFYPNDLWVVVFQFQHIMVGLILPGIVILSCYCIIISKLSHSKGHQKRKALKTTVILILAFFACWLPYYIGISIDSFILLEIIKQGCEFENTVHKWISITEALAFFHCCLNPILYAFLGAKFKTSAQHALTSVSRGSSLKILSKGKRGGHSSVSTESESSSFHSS

B1: [^125I]-238D2: 125I-labeled NANOBODY 238D2 for competition binding studies (protein)
VHH: EVQLVESGGGLVQTGGSLRLSCAASGFTFSSYAMSWVRQAPGKGLEWVSGIKSSGDSTRYAGSVKGRFTISRDNAKNMLYLQMYSLKPEDTAVYYCAKSRVSRTGLYTYDNRGQGTQVTVSS
In the case of B1, the “binding to CXCR4 membranes compared to CXCR3 membranes” value in assay [1] was “selectively bound”.

B2: 237D2: selected Nanobody, SEQ ID NO: 241 (protein)
VHH: EVQLVESGGGLVQPGGSLRLSCAASGFTFDDYAMSWVRQAPGKGLEWVSAISWNGGSTDYADSVKGRFTISRDNAKNTLYLQMNSLKSEDTAEYYCARDQGPFYSGTYYYTRQYGYRGQGTQVTVSS
modifications: Nanobodies
Turning to B2, the “displacement of [125I]-238D4 (in words)” value in assay [2] (setting [5]) is recorded as “unable to inhibit”. Also, the “pKi ([125I]-238D4)” value in assay [2] (HEK293T-CXCR4 membranes) is reported as less than 6.3. The “Displacem. (%) of [125I]-238D4” value in assay [2] (setting [6]) is given as 0^a %. Moreover, the “displacement of [125I]-238D2 (in words)” value in assay [3] (setting [5]) is “unable to inhibit”. The “pKi ([125I]-238D2)” value in assay [3] (HEK293T-CXCR4 membranes) is given as less than 6.3. Also, the “Displacem. (%) of [125I]-238D2” value in assay [3] (setting [6]) is on record as 0^a %. In assay [4], the “pKi ([125I]-CXCL12)” value is less than 6.3 and the “Displacem. (%) of [125I]-CXCL12” value is 0^a %. Also, the “displacement of specifically bound [125I]-CXCL12 (in words)” value in assay [4] (purified Nanobodies) is given as “unable to displace”.

B3: [^125I]-238D4: 125I-labeled NANOBODY 238D4 for competition binding studies (protein)
VHH: EVQLMESGGGLVQAGGSLRLSCAASGRTFNNYAMGWFRRAPGKEREFVAAITRSGVRSGVSAIYGDSVKDRFTISRDNAKNTLYLQMNSLKPEDTAVYTCAASAIGSGALRRFEYDYSGQGTQVTVSS
For B3, the “binding to CXCR4 membranes compared to CXCR3 membranes” value in assay [1] is on record as “selectively bound”.

B4: 238D2-20GS-238C5: bivalent Nanobody, SEQ ID NO: 265 (protein)
chain: EVQLVESGGGLVQTGGSLRLSCAASGFTFSSYAMSWVRQAPGKGLEWVSGIKSSGDSTRYAGSVKGRFTISRDNAKNMLYLQMYSLKPEDTAVYYCAKSRVSRTGLYTYDNRGQGTQVTVSSGGGGSGGGGSGGGGSGGGGSEVQLMESGGGLVQAGGSLRLACAASGFTFEDYAIGWFRKAPGKEREGVSCISGSDGSTTYADSVKGRFTISTDNAKNTVYLEMNSLKPEDTAVYYCAQQYGVGGRVVCPGPYEYDVWGQGTQVTVSS
modifications: Nanobodies
Turning to B4, in assay [4], the “pKi ([125I]-CXCL12)” value is reported as 7.35 ± 0.07 and the “Displacem. (%) of [125I]-CXCL12” value amounted to 110 ± 2%. In assay [4] ([125I]-CXCL12 displacement affinity, fold), the “Rel. potency, relative to monovalent 238D2” value is on record as 0.18^a.
